Measured values reported in article PMC10011331, “Vitamin C transporter SVCT1 serves a physiological role as a urate importer: functional analyses and in vivo investigations” (Pflugers Archiv, 2023).

Assays:
[1] = test system: T1, O=c1[nH]c(=O)c2[nH]c(=O)[nH]c2[nH]1; test: cells, lysate or membranes; type: cell-based, Homo sapiens; conditions: Na+ urate and vitamin C could compete for SVCT1-mediated transport
T1 construct: full-length human SVCT1 WT, EGFP fusion (pEGFP-N1)

[2] = test system: T2, O=c1[nH]c(=O)c2[nH]c(=O)[nH]c2[nH]1; test: cells, lysate or membranes; type: cell-based, Mus musculus; conditions: Na+
T2 construct: mouse Svct1 WT, EGFP fusion

Row | Substance | Km [1] [µM] | Km [2] [µM]
1 | SVCT1 (Homo sapiens) | 1511 | –
2 | Svct1 (Mus musculus) | – | 646.9
